Measurements as given in patent US7667100B2, “Nucleic acid compositions conferring herbicide resistance” (Dow AgroSciences LLC, priority 2002, dated 2010).

Legend:
Nicotiana benthamiana [1] = test: Cross-resistance testing against six auxin compounds (greenhouse); assay type: in vivo; conditions: for tolerance to picloram (Compound #5): 10 g ae/ha and 1/2x; for tolerance to positive control 4-amino-3,6-dichloropyridine-2-carboxylic acid (Compound #6): 10 g ae/ha and 1/2x (5 g ae/ha); for tolerance to dicamba (Compound #3): 64 g ae/ha and 1/2x; for tolerance to quinclorac (Compound #1): 200 g ae/ha and 1/2x; for extent of cross-resistance to the six auxin compounds: two trials, two doses per auxin, thresholds 25% or 35% injury or less
From the text: Six compounds, representing five classes of auxin chemistry, were selected for testing the extent of auxinic tolerance of five hit sequences (129965 (SEQ ID NO:10), 130213 (SEQ ID NO: 14), 130294 (SEQ ID NO:360), 130994 (SEQ ID NO:361), and 129870 (SEQ ID NO:359)). The compounds included the following: • 1) quinclorac (BASF Corp., Research Triangle, N.C.) • 2) (2,4-dichlorophenoxy) acetic acid (Dow AgroSciences, Indianapolis, Ind.) • 3) dicamba (Monsanto, St. Louis, Mo.) • 4) benazolin (AgrEvo USA Company, Wilmington, Del.) • 5) picloram (Dow AgroSciences, Indianapolis, Ind.) • 6) 4-amino-3,6-dichloropyridine-2-carboxylic acid (Dow AgroSciences, Indianapolis, Ind.) Compound #6 served as a positive control, as these five sequences were identified for their herbicide tolerant function using this auxin (see Example 9). Compound #1 represents the quinoline carboxylic acid chemical family, #2 is in the phenoxy carboxylic acid class, #3 is benzoic acid chemistry, #4 is unique to any currently defined class, and #5 is in the same family as the positive control, pyridine carboxylic acids.
The protocol was essentially the same as that described in Example 9 for greenhouse evaluations. However, an individual experiment consisted of 200 test plants plus 35 GFP and 35 bar negative control plants inoculated per clone. […] Two doses per auxin were tested, with as many as 12 well-infected test plants and 2 of each of the negative controls per dose.
The six auxin solutions were prepared by dissolving solid compound in General Purpose Solvent (GPS: 97%DMSO: 3% acetone) to achieve the following spray rates (g ae/ha) when using the spray applicator and parameters outlined in Example 9: Compound #1) 200; 2) 42; 3) 64; 4) 200; 5) 10; 6) 10. From each of these solutions, a portion was diluted with an equal volume of GPS, resulting in 1× (“high dose”) and ½× (“low dose”) concentrations for spraying. Before spray application, each auxin solution was mixed with an equal volume of diluent containing surfactants for effective penetration. The diluent was prepared as follows: 420 mL GPS, 460 mL DI water, 120 mL isopropyl alcohol, 10.167 mL Agri-Dex (Helena Chemical Co., Memphis, Tenn.), and 0.167 mL Triton X-155 (Sigma Chemical Co., St. Louis, Mo.). In addition to the 200 and 100 g ae/ha rates tested for Compound #4 (benazolin), a concentration of 250 g ae/ha was also formulated as described above and tested.
Plants were sprayed and evaluated as described in Example 9. FIG. 7 summarizes the sequences tested and the highest dose of the compounds against which tolerance was observed. […] Results are reported in FIG. 7 for each of the trials with each construct.
The positive control (Compound #6) was formulated differently in this set of evaluations from that described in Example 9, for consistency in the solvent/surfactant background from which to compare the activity of the individual sequences against each auxin. Thus, the spray rate used for evaluation was lower than previous experiments, 5 vs. 13 g ae/ha. The need to lower the dose with this formulation to prevent total chlorosis and/or necrosis was likely due to the addition of DMSO, Agri-Dex, and Triton X-155 which were not used in Example 9.

Nicotiana benthamiana [2] = test: Evaluation of auxin tolerance in greenhouse plants inoculated with clone transcript and sprayed with herbicide; assay type: in vivo; conditions: greenhouse; 30% or more of test population tolerant by 14 dat
Procedure: All primary hit sequences were evaluated for tolerance in larger plants, maintained under greenhouse conditions as described below.
Plant Growth and Maintenance. Nb seeds were sown in 6.5 cm pots filled with Redi-earth medium (The Scotts Company, Marysville, Ohio) pre-wetted by injection of Hoagland's fertilizer solution [all from the Scotts Company: 147 kg Peters Excel 15-15-15 Cal-Mag, 68 kg Peters Excel 15-0-0 Cal-Lite (15% Ca), and 45 kg Peters Excel 10-0-0 MagNitrate (10% Mg) in hot tap water to 596 L total volume] into irrigation water at a ratio of 200:1, using an injection system (H. E. Anderson, Muskogee Okla,). Seededpots were placed in the greenhouse for 1 day, transferred to a 27° C. germination chamber (Carolina Greenhouses, Kinston, N.C.) for 2 days, and then returned to the greenhouse. Shade curtains (33% transmittance) were used in the greenhouse to reduce solar intensity. To ensure 16 hour day length and supplement solar radiation on overcast days, artificial lighting consisting of a 1:1 mixture of metal halide and high pressure Sylvania sodium lamps was used, delivering approximately 220 μmol/m^2/s. Evaporative cooling and steam heat were used to maintain a daytime set point of 27° C. and a nighttime temperature of 22° C. At approximately 7 days post sowing (dps), seedlings were thinned to one seedling per pot and at 17 to 21 dps, the pots were spaced farther apart to accommodate plant growth. Plants were watered with Hoagland's solution as required. Following inoculation, waste irrigation water was collected and treated with 0.5% sodium hypochlorite for 10 minutes to neutralize any viral contamination before discharging into the municipal sewer.
Plant Inoculation. For each clone, 50 test plants as well as 10 GFP and bar (Thompson et al., EMBO J. 6:2519 [19870]) negative control plants were inoculated as follows: 2.0 mL of inoculum per clone were prepared by combining equal volumes of NCAP transcript and FES buffer [0.1 M glycine, 0.06 M K2HPO4, 1% sodium pyrophosphate, 1% diatomaceous earth (Sigma Chemical Company, St. Louis, Mo.), and either 1% silicon carbide (Aldrich Chemical Company, Milwaukee, Wis.), or 1% Bentonite (Sigma Chemical Company, St. Louis, Mo.)]. The inoculum was applied to each plant at 17 days post sowing by pipetting onto the upper surface of leaves 3 and 4 (˜20 μL per leaf). The inoculum was then spread across each leaf surface using a 3″ cotton tipped applicator (Calapro Swab, Fisher Scientific, Pittsburgh, Pa.) and a gloved finger to support the leaf. Following inoculation the plants were misted with deionized water.
Infection Scoring. At 8 days post inoculation (dpi), the plants were visually examined and a numerical score was assigned to each plant to indicate the extent of viral infection symptoms: 0=no infection, 1=possible infection, 2=infection symptoms limited to leaves <50-75% fully expanded, 3=typical systemic infection, 4=atypically severe infection, often accompanied by moderate to severe wilting and/or necrosis. Plants receiving an infection rating of 0, 1, or 4 were discarded.
Herbicide spraying. At 9 dpi, the well infected plants (infection score of 3, sometimes 2) were divided into 3 treatment groups. Group 1, to be sprayed with solvent only, contained 4 plants per test clone (2 plants per negative control) and Groups 2 and 3, to be treated with 13 or 40 g ae/ha, respectively, each consisted of 12 test plants per clone and 2 plants per negative control. […]

B1: 130294: Poppy cDNA clone; auxin tolerance hit sequence (nucleic acid)
DNA: TTAATTAAGTCGACGAATTCACATCTAAAGTCAACAACAAGAGCTTCTCTCTTCTCCTCGTCTCTGTTCTCCTCTCTTTTGCAATCCTCTCTCAATCTGCTGATGATTGTGTATACACAGTATACACAAGAACAGGATCAATCATCAAAGGAGGAACGGATTCAAAAATCTCACTAAGATTATACAGCAAATACGGTAAGTACATCGAGATCCCAAATCTTGAATCATGGGGTGGATTAATGGGTCCTGGTTACGATTATTTCGAAAGAGGTAATCTTGATATCTTCAGCGGAAGAGGTTATTGTCTGGGTTCACCGGTTTGTGCCATGAATCTGACTTCCGATGGTACTGGTTCCGGTCACGGATGGTATGTGAATTATGTTGAAGTTACTACTACCGGTGCACATATTAATTGTGGTCAACAGAATTTTGAAGTGGAAGATTGGCTTGCTCTTGATAGATCTCCTTATAGTCTTACCGCTATCAAGAATAATTGTAATCAGAAATTATCTGATCATGATTCTCATTCTGCTGATCAGTCTATGTAAAATTTGATCTCTTGTTTGATTCGGTGGTGGTCTAGTATGAGTGATCGGACGGTCGTCATTGTGTGTTGTAATGTTGAAATTATTTTCTTGAATAAAATGATTGAGTGAGTAGTGTTTGATTTTGCTTGGCCATCTTAGACATGATGGTGAGACTGTTTCTCGATTCGATGCAATTTTTTGGTTTTCTTGGTTGCAATCAATTCACGTTTGGTGAAAAAAAAAAAAAAAAAAAAAAAAAAAAAAAAAAAAAAAAAAAA
modifications: Poppy
tolerance to picloram (Compound #5) (Nicotiana benthamiana [1]): clear resistance to dicamba and picloram when the 35% rating was considered
tolerance to positive control 4-amino-3,6-dichloropyridine-2-carboxylic acid (Compound #6) (Nicotiana benthamiana [1]): tolerance consistently occurred at the lower threshold (25% injury or less)
tolerance to dicamba (Compound #3) (Nicotiana benthamiana [1]): clear resistance to dicamba and picloram when the 35% rating was considered
tolerance to quinclorac (Compound #1) (Nicotiana benthamiana [1]): consistently tolerant to quinclorac exposure at the 25% injury threshold
extent of cross-resistance to the six auxin compounds (Nicotiana benthamiana [1]): tolerance was observed against four compounds
reproducibility of auxin tolerance from Trial #1 to Trial #2 (Nicotiana benthamiana [2]): reproducible auxin tolerance

B2: 130994: Poppy cDNA clone; auxin tolerance hit sequence (nucleic acid)
DNA: GAATTCAATCAAATGGCTACTGCTAGAGTTTTAGCTGCTAGTATGTTGCATGAATGCAACAACACTCACAGTGCTTCATTTCTTTTGAGACAATCTTCTTTCATCTTACCTATTAAACATCAAAGTATTAATTTCAGTAGAAGAGCATCTTCTAGGAGAGCTTTTACTTGCAAATCTCTTTACAAACCTGAAATTCAAATCAAACAAGAAGGTGAACCTCAAACCCTAGATTACAGAGTCTTCTTTCATGATAAATCTGGCAAAAAGCTTTCACCTTGGCATGATGTACCATTGCAATTGGGTGATGGAGTGTTCAATTTTATCGTGGAAATACCAAAAGAGACAAGTGCAAAGATGGAAGTTGCAACTGATGAGCCATATACTCCCATTAAACAGGACACCAAGAAGGGAAAACTTAGATTCTACCCCTACAACATCAATTGGAACTATGGATTGCTCCCACAGACATGGGAAGACCCAACAGTAGCTAATTCTGAAGTTGAAGGGGCATTCGGAGATAATGATCCAGTTGATGTTGTTGAAATTGGGGAGAGGCAAGGAAAAATTGGCGAGATTCTTAAAGTCAAGCCTTTAGGTGCTTTGGCTATGATTGACGAAGGAGAACTCGACTGGAAAATTGTTGCGATTTCGTTGGATGACCCAAAAGCTTCACTCGTCAATGATGTTGGTGATGTTGAGAAACATTTCCCGGGCACTCTCACTGCTATAAGAGATTGGTTCAGAGACTACAAGATCCCAGATGGAAAGCCTGCCAATAAGTTTGGACTTGGGAACAAAGCAGCCAACAAGGATTATGCTCTGAAGGTAATAACTGAAACCAACGAAGCTTGGGCTAAACTTGTCAAGAGAACTGTTCCTGCTGGGGAGCTCTCCCTTCTGTAAATTTTGAATTTTTAAAAGTTGAAGATAAGAGGCACTTTGGCCCGCTCCTATCCCCCTCCTCTCTCTATTGTTTTCTTTCATGCTGGATTCCAAACAAACTTCCTCCAATTTTTTGGACGAAGTATTGATAATTTCTAATCATTGAGCTCCATTTTTCAAAAAAAAAAAA
modifications: Poppy
tolerance to picloram (Compound #5) (Nicotiana benthamiana [1]): demonstrated tolerance to each of the three compounds using the 35% injury threshold
tolerance to positive control 4-amino-3,6-dichloropyridine-2-carboxylic acid (Compound #6) (Nicotiana benthamiana [1]): tolerance consistently occurred at the lower threshold (25% injury or less)
tolerance to dicamba (Compound #3) (Nicotiana benthamiana [1]): demonstrated tolerance to each of the three compounds using the 35% injury threshold
tolerance to quinclorac (Compound #1) (Nicotiana benthamiana [1]): demonstrated tolerance to each of the three compounds using the 35% injury threshold
extent of cross-resistance to the six auxin compounds (Nicotiana benthamiana [1]): tolerance was observed against four compounds
reproducibility of auxin tolerance from Trial #1 to Trial #2 (Nicotiana benthamiana [2]): reproducible auxin tolerance
